Test results from US20220017622A1 (Pfizer, published 2022).

T1: human B7-H4 on cells (human, UniProt Q7Z7D3 25-282)
T1 sequence (looked up): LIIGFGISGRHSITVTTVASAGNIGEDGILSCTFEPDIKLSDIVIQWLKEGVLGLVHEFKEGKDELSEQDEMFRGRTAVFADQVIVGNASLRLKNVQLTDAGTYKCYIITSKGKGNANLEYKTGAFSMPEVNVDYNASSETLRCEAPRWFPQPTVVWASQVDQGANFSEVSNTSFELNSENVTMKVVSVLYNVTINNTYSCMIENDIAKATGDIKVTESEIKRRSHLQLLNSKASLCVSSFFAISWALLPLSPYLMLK


What was measured:
human B7-H4 on cells [1] = molecular target: T1, human B7-H4 on cells; test: cell-based or functional assay
[2] = molecular target: T2, human CD3 on primary human T cells (human, UniProt P07766 23-207; P04234 22-171); test: flow cytometry on primary human T cells, 37 C
T2 construct: whole, on cells; On cells the whole CD3/TCR complex is present
T2 sequence (P07766 23-207, chain 1 of 2): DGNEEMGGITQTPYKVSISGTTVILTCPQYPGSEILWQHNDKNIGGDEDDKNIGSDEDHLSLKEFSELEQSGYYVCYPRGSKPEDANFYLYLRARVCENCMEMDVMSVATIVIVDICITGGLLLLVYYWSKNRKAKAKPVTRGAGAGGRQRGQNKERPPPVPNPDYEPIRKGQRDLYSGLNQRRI
T2 sequence (P04234 22-171, chain 2 of 2): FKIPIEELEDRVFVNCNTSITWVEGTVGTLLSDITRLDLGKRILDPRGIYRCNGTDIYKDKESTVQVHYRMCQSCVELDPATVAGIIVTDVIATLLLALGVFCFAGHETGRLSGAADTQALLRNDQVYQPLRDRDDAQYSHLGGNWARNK

human B7-H4 on cells [3] = molecular target: T1, human B7-H4 on cells; test: flow cytometry on MX-1 cells, 37 C
[4] = molecular target: T3, human CD3 (delta/epsilon heterodimer) (human, UniProt P07766 23-126; P04234 22-105); test: SPR 25 C; CD3 delta/epsilon on anti-His chip, bispecific analyte
T3 construct: captured on an anti-His chip, so it carries a His tag; also called huCD3
T3 sequence (P07766 23-126, stated change not applied, chain 1 of 2): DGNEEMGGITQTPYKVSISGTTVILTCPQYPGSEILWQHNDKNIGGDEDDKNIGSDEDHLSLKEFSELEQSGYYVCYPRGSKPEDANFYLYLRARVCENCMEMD
T3 sequence (P04234 22-105, stated change not applied, chain 2 of 2): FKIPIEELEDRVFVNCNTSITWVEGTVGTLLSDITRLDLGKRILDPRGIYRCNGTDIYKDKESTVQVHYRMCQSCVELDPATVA

[5] = molecular target: T4, cyno CD3 (delta/epsilon heterodimer) (cyno, UniProt Q95LI5 22-117; Q95LI8 22-105); test: as above
T4 construct: also called cyCD3
T4 sequence (Q95LI5 22-117, stated change not applied, chain 1 of 2): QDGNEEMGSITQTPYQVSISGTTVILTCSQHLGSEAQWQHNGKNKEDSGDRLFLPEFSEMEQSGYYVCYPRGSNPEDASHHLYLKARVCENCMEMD
T4 sequence (Q95LI8 22-105, stated change not applied, chain 2 of 2): as the sequence (P04234 22-105, stated change not applied, chain 2 of 2) above, with I5V, N15K, I20V, S32T, D33N, I34N, T64A, S74N, V83L counted along it

[6] = molecular target: T3, human CD3 (delta/epsilon heterodimer); test: SPR 37 C; CD3 delta/epsilon on anti-His chip, bispecific analyte
[7] = molecular target: T4, cyno CD3 (delta/epsilon heterodimer); test: as above
For T cell mediated tumor cell killing, MDA-MB-468 in this document: unit not given here.
For T cell mediated tumor cell killing, OVCAR3-Luc in this document: unit not given here.
For T cell mediated tumor cell killing, T47D in this document: unit not given here.

| EC50 [2] | EC50 (human B7-H4 on cells [3]) | Kd [4] | koff [4] | kon [4] | Kd [5] | koff [5] | kon [5] | Kd [6] | koff [6] | kon [6] | Kd [7] | koff [7] | kon [7] | Binder | T cell mediated tumor cell killing EC50, HCC1954-Luc (human B7-H4 on cells [1]) | T cell mediated tumor cell killing, OVCAR3-Luc (human B7-H4 on cells [1]) | T cell mediated tumor cell killing, T47D (human B7-H4 on cells [1]) | T cell mediated tumor cell killing, MDA-MB-468 (human B7-H4 on cells [1]) |
| --- | --- | --- | --- | --- | --- | --- | --- | --- | --- | --- | --- | --- | --- | --- | --- | --- | --- | --- |
| 5.56 nM | 13.1 nM | – | – | – | – | – | – | – | – | – | – | – | – | B7-H4xCD3 bispecific antibody 1168 (bispecific antibody, IgG2, Chains 1-2: B7-H4 arm; chains 3-4: CD3 arm; IgG2) heavy 1: EVQLLESGGGLVQPGGSLRLSCAASGFTFSSYAMSWVRQAPGKGLEWVSAISGGGGSTYYADSVKGRFTISRDNSKNTLYLQMNSLRAEDTAVYYCARDIQWYGESTLFDYWGQGTLVTVSSASTKGPSVFPLAPCSRSTSESTAALGCLVKDYFPEPVTVSWNSGALTSGVHTFPAVLQSSGLYSLSSVVTVPSSNFGTQTYTCNVDHKPSNTKVDKTVERKCEVECPECPAPPVAGPSVFLFPPKPKDTLMISRTPEVTCVVVAVSHEDPEVQFNWYVDGVEVHNAKTKPREEQFNSTFRVVSVLTVVHQDWLNGKEYKCKVSNKGLPSSIEKTISKTKGQPREPQVYTLPPSREEMTKNQVSLTCEVKGFYPSDIAVEWESNGQPENNYKTTPPMLDSDGSFFLYSKLTVDKSRWQQGNVFSCSVMHEALHNHYTQKSLSLSPG light 1: DIQMTQSPSSLSASVGDRVTITCRASQSTRSWLAWYQQKPGKAPKLLIYKASSLESGVPSRFSGSGSGTDFTLTISSLQPEDFATYYCQQYGSYSRTFGQGTKVEIKRTVAAPSVFIFPPSDEQLKSGTASVVCLLNNFYPREAKVQWKVDNALQSGNSQESVTEQDSKDSTYSLSSTLTLSKADYEKHKVYACEVTHQGLSSPVTKSFNRGEC heavy 2: EVQLVESGGGLVQPGGSLRLSCAASGFTFSDYYMTWVRQAPGKGLEWVAFIRNQARGYTSDHNPSVKGRFTISRDNAKNSLYLQMNSLRAEDTAVYYCARDRPSYYVLDYWGQGTTVTVSSASTKGPSVFPLAPCSRSTSESTAALGCLVKDYFPEPVTVSWNSGALTSGVHTFPAVLQSSGLYSLSSVVTVPSSNFGTQTYTCNVDHKPSNTKVDKTVERKCRVRCPRCPAPPVAGPSVFLFPPKPKDTLMISRTPEVTCVVVAVSHEDPEVQFNWYVDGVEVHNAKTKPREEQFNSTFRVVSVLTVVHQDWLNGKEYKCKVSNKGLPSSIEKTISKTKGQPREPQVYTLPPSREEMTKNQVSLTCLVKGFYPSDIAVEWESNGQPENNYKTTPPMLDSDGSFFLYSRLTVDKSRWQQGNVFSCSVMHEALHNHYTQKSLSLSPGK light 2: DIQMTQSPSSLSASVGDRVTITCTSSQSLFNVRSQKNYLAWYQQKPGKAPKLLIYWASTRESGVPSRFSGSGSGTDFTLTISSLQPEDFATYYCKQSYDLFTFGGGTKVEIKRTVAAPSVFIFPPSDEQLKSGTASVVCLLNNFYPREAKVQWKVDNALQSGNSQESVTEQDSKDSTYSLSSTLTLSKADYEKHKVYACEVTHQGLSSPVTKSFNRGEC | 2160 nM | 360 | 1910 | – |
| – | – | 13.2 nM | 0.00553 s⁻¹ | 420000 M⁻¹ s⁻¹ | 13.5 nM | 0.00506 s⁻¹ | 374000 M⁻¹ s⁻¹ | 63 nM | 0.0349 s⁻¹ | 554000 M⁻¹ s⁻¹ | 69 nM | 0.0349 s⁻¹ | 506000 M⁻¹ s⁻¹ | B7-H4xCD3 bispecific antibody 0068 (bispecific antibody, IgG2, Chains 1-2: B7-H4 arm; chains 3-4: CD3 arm; IgG2 EEE/RRR; also called anti-B7-H4 clone 37D4) heavy 1: EVQLLESGGGLVQPGGSLRLSCAASGFTFSSYAMSWVRQAPGKGLEWVSAISGGGGSTYYADSVKGRFTISRDNSKNTLYLQMNSLRAEDTAVYYCARDIQWFGESTLFDYWGQGTLVTVSSASTKGPSVFPLAPCSRSTSESTAALGCLVKDYFPEPVTVSWNSGALTSGVHTFPAVLQSSGLYSLSSVVTVPSSNFGTQTYTCNVDHKPSNTKVDKTVERKCEVECPECPAPPVAGPSVFLFPPKPKDTLMISRTPEVTCVVVAVSHEDPEVQFNWYVDGVEVHNAKTKPREEQFNSTFRVVSVLTVVHQDWLNGKEYKCKVSNKGLPSSIEKTISKTKGQPREPQVYTLPPSREEMTKNQVSLTCEVKGFYPSDIAVEWESNGQPENNYKTTPPMLDSDGSFFLYSKLTVDKSRWQQGNVFSCSVMHEALHNHYTQKSLSLSPGK light 1: DIQLTQSPSTLSASVGDRVTITCRASQSIRSWLAWFQQKPGKAPKLLIYKASSLEGGVPSRFSGSGSGTEFTLTISSLQPDDFATYYCQQYNSYSRTFGQGTKVEIKRTVAAPSVFIFPPSDEQLKSGTASVVCLLNNFYPREAKVQWKVDNALQSGNSQESVTEQDSKDSTYSLSSTLTLSKADYEKHKVYACEVTHQGLSSPVTKSFNRGEC heavy 2: EVQLVESGGGLVQPGGSLRLSCAASGFTFSDYYMTWVRQAPGKGLEWVAFIRNQARGYTSDHNPSVKGRFTISRDNAKNSLYLQMNSLRAEDTAVYYCARDRPSYYVLDYWGQGTTVTVSSASTKGPSVFPLAPCSRSTSESTAALGCLVKDYFPEPVTVSWNSGALTSGVHTFPAVLQSSGLYSLSSVVTVPSSNFGTQTYTCNVDHKPSNTKVDKTVERKCRVRCPRCPAPPVAGPSVFLFPPKPKDTLMISRTPEVTCVVVAVSHEDPEVQFNWYVDGVEVHNAKTKPREEQFNSTFRVVSVLTVVHQDWLNGKEYKCKVSNKGLPSSIEKTISKTKGQPREPQVYTLPPSREEMTKNQVSLTCLVKGFYPSDIAVEWESNGQPENNYKTTPPMLDSDGSFFLYSRLTVDKSRWQQGNVFSCSVMHEALHNHYTQKSLSLSPGK light 2: DIQMTQSPSSLSASVGDRVTITCTSSQSLFNVRSQKNYLAWYQQKPGKAPKLLIYWASTRESGVPSRFSGSGSGTDFTLTISSLQPEDFATYYCKQSYDLFTFGGGTKVEIKRTVAAPSVFIFPPSDEQLKSGTASVVCLLNNFYPREAKVQWKVDNALQSGNSQESVTEQDSKDSTYSLSSTLTLSKADYEKHKVYACEVTHQGLSSPVTKSFNRGEC | 284 nM | 79 | 566 | 332 |
| 9.77 nM | 3.9 nM | – | – | – | – | – | – | – | – | – | – | – | – | B7-H4xCD3 bispecific antibody 0999 (bispecific antibody, IgG2, Chains 1-2: B7-H4 arm; chains 3-4: CD3 arm; IgG2) heavy 1: EVQLLESGGGLVQPGGSLRLSCAASGFTFSSYAMSWVRQAPGKGLEWVSAISGGGGSTYYADSVKGRFTISRDNSKNTLYLQMNSLRAEDTAVYYCARDIQWYGESTLFDYWGQGTLVTVSSASTKGPSVFPLAPCSRSTSESTAALGCLVKDYFPEPVTVSWNSGALTSGVHTFPAVLQSSGLYSLSSVVTVPSSNFGTQTYTCNVDHKPSNTKVDKTVERKCEVECPECPAPPVAGPSVFLFPPKPKDTLMISRTPEVTCVVVAVSHEDPEVQFNWYVDGVEVHNAKTKPREEQFNSTFRVVSVLTVVHQDWLNGKEYKCKVSNKGLPSSIEKTISKTKGQPREPQVYTLPPSREEMTKNQVSLTCEVKGFYPSDIAVEWESNGQPENNYKTTPPMLDSDGSFFLYSKLTVDKSRWQQGNVFSCSVMHEALHNHYTQKSLSLSPG light 1: DIQLTQSPSTLSASVGDRVTITCRASQSIRSWLAWFQQKPGKAPKLLIYKASSLEGGVPSRFSGSGSGTEFTLTISSLQPDDFATYYCQQYNSYSRTFGQGTKVEIKRTVAAPSVFIFPPSDEQLKSGTASVVCLLNNFYPREAKVQWKVDNALQSGNSQESVTEQDSKDSTYSLSSTLTLSKADYEKHKVYACEVTHQGLSSPVTKSFNRGEC heavy 2: EVQLVESGGGLVQPGGSLRLSCAASGFTFSDYYMTWVRQAPGKGLEWVAFIRNQARGYTSDHNPSVKGRFTISRDNAKNSLYLQMNSLRAEDTAVYYCARDRPSYYVLDYWGQGTTVTVSSASTKGPSVFPLAPCSRSTSESTAALGCLVKDYFPEPVTVSWNSGALTSGVHTFPAVLQSSGLYSLSSVVTVPSSNFGTQTYTCNVDHKPSNTKVDKTVERKCRVRCPRCPAPPVAGPSVFLFPPKPKDTLMISRTPEVTCVVVAVSHEDPEVQFNWYVDGVEVHNAKTKPREEQFNSTFRVVSVLTVVHQDWLNGKEYKCKVSNKGLPSSIEKTISKTKGQPREPQVYTLPPSREEMTKNQVSLTCLVKGFYPSDIAVEWESNGQPENNYKTTPPMLDSDGSFFLYSRLTVDKSRWQQGNVFSCSVMHEALHNHYTQKSLSLSPGK light 2: DIQMTQSPSSLSASVGDRVTITCTSSQSLFNVRSQKNYLAWYQQKPGKAPKLLIYWASTRESGVPSRFSGSGSGTDFTLTISSLQPEDFATYYCKQSYDLFTFGGGTKVEIKRTVAAPSVFIFPPSDEQLKSGTASVVCLLNNFYPREAKVQWKVDNALQSGNSQESVTEQDSKDSTYSLSSTLTLSKADYEKHKVYACEVTHQGLSSPVTKSFNRGEC | 277 nM | 90 | 258 | – |
